Measured values from patent publication US20140205597A1 (published 2014).
Where a chain is given by its changes, count along the chain named. Names may count otherwise.

B1: SEQ ID NO 77 (VHH)
VHH: EVQLVESGGGLVQPGGSLRLSCAASRSIGRLDRMGWYRHRPGEPRELVATITGGSSINYGDSVKGRFTISIDNSKNTVYLQMNSLRPEDTAVYYCNFNKYVTSRDTWGQGTLVTVSS
notes: C-terminal: A
B2: SEQ ID NO 75 (VHH)
VHH: B1 VHH
notes: C-terminal: AA
B3: SEQ ID NO 79 (VHH)
VHH: B1 VHH
notes: C-terminal: GG
B4: SEQ ID NO 76 (VHH)
VHH: B1 VHH
notes: C-terminal: GGG
B5: SEQ ID NO 88 (VHH)
VHH: B1 VHH with L11S, T114Q
notes: C-terminal: A; L11S, T110Q
B6: A007901255, monovalent form (VHH)
VHH: DVQLVESGGGLVQPGGSLRLSCAASGFTFDDYAIGWFRQAPGEEREGVSSISSTYGLTYYADSVKGRFTISSDNSKNTVYLQMNSLRPEDTAVYYCAATPIGLIGLDAYEYDYWGQGTLVTVSS
notes: anti-c-MET Nanobody
B7: A007901259, monovalent form (VHH)
VHH: B6 VHH with E46L
notes: anti-c-MET Nanobody
B8: A007901256, monovalent form (VHH)
VHH: B6 VHH with T28A
notes: anti-c-MET Nanobody
B9: A007901260, monovalent form (VHH)
VHH: B6 VHH with T28A, E46L
notes: anti-c-MET Nanobody

Legend:
[1] = target: T1, purified interference factor(s) from serum of Donor B; test: Biacore, immobilized interference factor
T1 construct: text names Donors 8, 19 and 30

[2] = target: T2, purified interference factor(s) from serum of Donor C; test: Biacore, immobilized interference factor
T2 construct: text names Donors 8, 19 and 30

[3] = target: T3, purified interference factor(s) from serum of Donor A; test: Biacore, immobilized interference factor
T3 construct: text names Donors 8, 19 and 30

[4] = target: T4, monoclonal antibody 21-4-3; test: Biacore, captured 21-4-3
T4 construct: mouse IgG1 heavy chain, kappa light chain; also called mAb21-4-3; produced by hybridoma ABH0015 (LMBP-9680-CB)
Experimental: Binding measurements were performed using a Biacore T100 using a CM5 T120416 sensor chip, with running buffer HBS-EP+, 25° C. […] The anti-mouse IgG used was a polyclonal rabbit anti-mouse IgG antibodies reacting with all IgG subclasses, IgA and IgM (GE Healthcare; Cat#BR-1008-38; Lot#10056316). Immobilisation of the anti-mouse IgG was performed using manual amine coupling using a 7 minute injection of EDC/NHS for activation and a 7 minute injection of 1M ethanolamine HCl pH 8.5 for deactivation (Biacore, amine coupling kit).

cMet/Fc = target: T5, cMet/Fc (UniProt P08581 25-932); test: HGF-competition Alphascreen, monovalent form
T5 construct: not shown: Fc part not specified
T5 sequence (P08581 25-932): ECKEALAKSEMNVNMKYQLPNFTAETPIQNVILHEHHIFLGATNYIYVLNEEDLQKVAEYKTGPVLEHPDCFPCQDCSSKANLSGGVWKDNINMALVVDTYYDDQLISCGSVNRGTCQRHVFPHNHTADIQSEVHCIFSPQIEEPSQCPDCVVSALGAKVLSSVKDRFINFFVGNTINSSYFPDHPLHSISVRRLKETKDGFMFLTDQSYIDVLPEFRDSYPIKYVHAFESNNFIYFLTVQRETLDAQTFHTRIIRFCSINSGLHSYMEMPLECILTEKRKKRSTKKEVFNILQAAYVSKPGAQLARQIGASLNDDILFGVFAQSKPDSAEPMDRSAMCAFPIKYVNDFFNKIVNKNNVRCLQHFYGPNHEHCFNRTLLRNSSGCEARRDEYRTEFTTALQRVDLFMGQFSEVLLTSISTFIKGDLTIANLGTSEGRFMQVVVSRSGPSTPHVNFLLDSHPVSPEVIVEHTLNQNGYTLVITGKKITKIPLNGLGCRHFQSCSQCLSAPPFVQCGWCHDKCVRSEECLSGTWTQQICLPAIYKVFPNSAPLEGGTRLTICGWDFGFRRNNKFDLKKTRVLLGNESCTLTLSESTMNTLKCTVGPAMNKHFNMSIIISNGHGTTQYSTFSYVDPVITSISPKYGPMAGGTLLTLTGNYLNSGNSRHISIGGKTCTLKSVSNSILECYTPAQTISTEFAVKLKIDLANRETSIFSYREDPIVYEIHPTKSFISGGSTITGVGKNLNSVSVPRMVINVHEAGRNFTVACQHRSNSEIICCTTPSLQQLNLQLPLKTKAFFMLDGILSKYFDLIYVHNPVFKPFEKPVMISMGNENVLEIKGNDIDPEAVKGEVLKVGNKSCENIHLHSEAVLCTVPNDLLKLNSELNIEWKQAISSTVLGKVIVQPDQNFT

Row | Binder | binding vs Reference Sequence (=100%) [1] [%] | binding vs Reference Sequence (=100%) [2] [%] | binding vs Reference Sequence (=100%) [3] [%] | binding vs Reference Sequence (=100%) [4] [%] | IC50 (cMet/Fc) [nM]
1 | B1 | 12 | 13 | 2 | 1 | –
2 | B2 | 11 | 16 | 1 | 1 | –
3 | B3 | 17 | 13 | 1 | 2 | –
4 | B4 | 17 | 20 | 2 | 2 | –
5 | B5 | 5 | 11 | 1 | 1 | –
6 | B6 | – | – | – | – | 0.091
7 | B7 | – | – | – | – | 0.043
8 | B8 | – | – | – | – | 0.048
9 | B9 | – | – | – | – | 0.035
